Assay [1] deals with T1, Biotinylated human soluble TWEAK (human, UniProt O43508 99-249, limits assumed, biotinylated (sites not given)).
T1 construct: also called Human TWEAK
T1 sequence (looked up): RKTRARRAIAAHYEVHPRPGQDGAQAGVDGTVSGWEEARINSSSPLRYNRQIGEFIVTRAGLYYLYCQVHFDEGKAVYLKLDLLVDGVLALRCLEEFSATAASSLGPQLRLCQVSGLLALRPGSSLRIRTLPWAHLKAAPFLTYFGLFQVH
The assay can be described thus: Biacore SPR, biotinylated human soluble TWEAK on streptavidin sensor, antibody 100 nM as analyte, 25° C. On the procedure:
A Biacore 2000 instrument was used with a Biacore streptavidin coated sensor mounted into the system. The system buffer HBS-ET (10 mM HEPES pH 7.4, 150 mM NaCl, 1 mM EDTA, 0.05% Tween® 20) was used at a flow rate of 100 μl/min. The sample buffer was the system buffer. Biotinylated human soluble TWEAK and biotinylated murine soluble TWEAK was immobilized on different flow cells on the SA sensor at 150 RU each. The flow cell FC1 was used as a blank reference cell. Each antibody was injected into the system as an analyte at 100 nM at 100 μl/min for 2 min association time. The dissociation of the immunecomplexes were monitored for 5 min. The sensor surface was washed with HBS-ET for 10 seconds and regenerated using 2×2 minutes injections with 10 mM glycine pH 2.25. This procedure was done at 25° C. The kinetically rate limiting step of the complex dissociation phase in the interval [240 s-300 s] was taken to calculate the dissociation rate kd [1/s] (Biacore Evaluation Software 4.0). According to the equation t1/2 diss=ln(2)/(60×kd), the half-life of each immunocomplexe in minutes was calculated.
(SPR reads the build-up and loss of mass on a sensor chip optically.)

Assay [2] addresses T2, human Flag-tagged soluble TWEAK (amino acids 106-249) (human, UniProt O43508 106-249).
T2 construct: the tag is put first here only by convention; also called Human TWEAK; not shown: Flag tag
T2 sequence (looked up): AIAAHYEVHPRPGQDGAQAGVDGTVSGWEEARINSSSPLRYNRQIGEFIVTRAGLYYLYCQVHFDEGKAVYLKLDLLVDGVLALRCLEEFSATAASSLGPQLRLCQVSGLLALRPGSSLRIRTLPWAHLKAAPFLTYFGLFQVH
The assay can be described thus: receptor interaction ELISA: antibody pre-incubated with human Flag-tagged soluble TWEAK, binding to coated human Fn14:Fc. On the procedure: Blocking of human TWEAK/human Fn14 interaction was shown by receptor interaction ELISA. 96-well Maxisorp® plates (Nunc) were coated with 100 μl 1 μg/ml human Fn14:Fc (extracellular domain of human Fn14 (amino acids 1-75) fused to Fc portion of human IgG1) in PBS per well for 1.5 h at room temperature and blocked with a solution of 5% FBS in PBS for 30 minutes at room temperature under shaking. […] Wells were filled with 100 μl of anti-FLAG-HRP detection antibody, diluted 1:5000 in blocking buffer, and incubated for 1 h at room temperature. After four more wash steps, the signal was developed by addition of 100 μl 3,3,5,5-Tetramethylbenzidine (TMB) solution for approximately ten minutes. The reaction was stopped by adding 100 μl of 1 N HCl, and absorbance measured at 450 nm (reference wavelength 620 nm).
On the technique in general: ELISA stands for enzyme-linked immunosorbent assay.

Assay [3] addresses T3, Human recombinant soluble TWEAK (human, UniProt O43508 99-249, limits assumed).
T3 sequence (looked up): T1 sequence (looked up)
Kind of assay: cell-based or functional assay.

Where a chain is given by its changes, count along the chain named.

B1: TW212chi (antibody, human IgG1)
light: DIVLTQSPAYLTMSPGQTTTISCKASQSVSIGPIHLMHWYQQKPGQPPRLLIYGASNPESGVPARFSGSGSGTDFTLTIHPVEADDAATYFCQQGKESPRTFGPGTKLEITRTVAAPSVFIFPPSDEQLKSGTASVVCLLNNFYPREAKVQWKVDNALQSGNSQESVTEQDSKDSTYSLSSTLTLSKADYEKHKVYACEVTHQGLSSPVTKSFNRGEC
heavy: not shown
With B1, in assay [1], the “t/2 diss [min] 25° C.” value is 13 min. In assay [2], this molecule returned an IC50 of 0.0134 µg/mL.

B2: TW212 (antibody)
VL: DIVLTQSPAYLTMSPGQTTTISCKASQSVSIGPIHLMHWYQQKPGQPPRLLIYGASNPESGVPARFSGSGSGTDFTLTIHPVEADDAATYFCQQGKESPRTFGPGTKLEITRADAKPTVSIFPPSSEQLGTGSATLVCFVNNFYPKDINVKWKVDGSEKRDGVLQSVTDQDSKDSTYSLSSTLSLTKADYERHNLYTCEVTHKTSTAAIVKTLNRNEC
VH: QVQLQESGPGLLKPAQSLSLTCTVTGYSIRSGYWWSWIRQQPGKGLEWMGQIYNKGNTDNNPSLKSQITMTVDTSKNQFFLRLRSVTTEDTAVYYCARVFWDDAYFDVWGQGIQVTVSSATTTAPSVYPLAPACDSTTSTTNTVTLGCLVKGYFPEPVTVSWNSGALTSGVHTFPSVLHSGLYSLSSSVTVPSSTWPSQTVTCNVAHPASSTKVDKKIVPGDGSGCKPCTCPGPEVSSVFIFPPKPKDVLTISLSPKVTCVVVDISQDDPEVQFSWFIDGKEVHTAVTQPREEQFNSTYRMVSVLPILHQDWLNGKEFKCKVNSPAFPVPIEKTISKRRGQLQVPQVYTMPPPKEQLTQSQVSLTCMIKGFYPEDIDVAWQKNGQPEQSFKNTPPVLDTDETYFLYSKLDVKKDDWEKGDTFTCSVVHEALHNHHTEKTLSQRPGK
notes: Armenian hamster monoclonal antibody; also called Antibody 212
With B2, the “IL-8 Secretion IC50” value in assay [3] worked out at 0.112 µg/mL. Also, the “t/2 diss [min] 25° C.” value in assay [1] worked out at 20 min. In assay [2], this molecule showed an IC50 of 0.0151 µg/mL.

B3: TW202 (antibody, V domains shown)
VH: QLQLQESGLGLVKPSQSLTLTCSVTGFSITTPDYSWHWIRQLPGQTLEWMGFLYYEGDTYYNPSLKSRISIARDASKNQFFLQLKAVTTEDTATYFCARRKYSGYGNWFAYWGQGTLVTVSL
VL: QPVLTQSPSASASLRASVKLTCTLSSQHSTYYIEWYQQRPDKAPKYVMYLDSDGSHIKGDGIPDRFSGSSSGAHRYLSISNLQPEDEAIYHCGVYDSTAGAVFGSGTQLTVLG
notes: Armenian hamster monoclonal antibody; also called Antibody 202
As to B3, the “IL-8 Secretion IC50” value in assay [3] was determined as 0.146 µg/mL. Further, the “t/2 diss [min] 25° C.” value in assay [1] amounted to 53 min. The same molecule yielded an IC50 in assay [2] of 0.0092 µg/mL.

B4: TW205 (antibody, V domains shown)
VH: B3 VH with L2I, Q3H, L42F, A86S, A98V, L117Q, L122S
VL: B3 VL with S7A, R39H, K45R, L50V, I62V, H74R
notes: Armenian hamster monoclonal antibody; also called Antibody 205
In the case of B4, the “IL-8 Secretion IC50” value in assay [3] is 0.151 µg/mL. Further, the “t/2 diss [min] 25° C.” value in assay [1] stood at 30 min. Moreover, the IC50 in assay [2] was found to be 0.0088 µg/mL.

B5: Antibody 15 (antibody, V domains shown)
VH: QVQLQESGPGLVKPSETLSLTCAVSGYSIRSGYWWSWIRQPPGKGLEWIGQIYNKGNTDNNPALKSRVTISVDTSKNQFSLKLSSVTAADTAVYYCARVFWDDAYFDVWGQGTMVTVSS
VL: EIVLTQSPATLSLSPGERATLSCKASQSVSIGPIHLMHWYQQKPGQAPRLLIYGASNPESGIPARFSGSGSGTDFTLTISSLEPEDFAVYYCQQGKESPRTFGQGTKLEIK
With B5, the “IL-8 Secretion IC50” value in assay [3] is 0.141 µg/mL. Also, the “t/2 diss. [min] 25° C.” value in assay [1] worked out at 18 min. In assay [2], this molecule displayed a half-maximal inhibitory concentration (IC50) of 0.014 µg/mL.

B6: Antibody 20 (antibody, V domains shown)
VH: B5 VH with P41Q, N61S, A63S, R67Q
VL: B5 VL
In the case of B6, the “IL-8 Secretion IC50” value in assay [3] was determined as 0.401 µg/mL. Further, the “t/2 diss. [min] 25° C.” value in assay [1] worked out at 15 min. The IC50 in assay [2] came to 0.035 µg/mL.

B7: Antibody 16 (antibody, V domains shown)
VH: B5 VH with N61S, A63S
VL: B5 VL
Take B7: the “IL-8 Secretion IC50” value in assay [3] was 0.163 µg/mL. The “t/2 diss. [min] 25° C.” value in assay [1] is 15 min. Besides, the IC50 in assay [2] stood at 0.022 µg/mL.

B8: Antibody 21 (antibody, V domains shown)
VH: B5 VH
VL: B5 VL with A9G, A64D, S81R
Take B8: the “IL-8 Secretion IC50” value in assay [3] worked out at 0.224 µg/mL. Also, the “t/2 diss. [min] 25° C.” value in assay [1] was 17 min. For the same molecule, the IC50 in assay [2] turned out to be 0.012 µg/mL.

B9: Antibody 22 (antibody, V domains shown)
VH: B5 VH with N61S, A63S
VL: B5 VL with A9G, A64D, S81R
Consider B9, for which, in assay [3], the “IL-8 Secretion IC50” value was 0.249 µg/mL. In addition, the “t/2 diss. [min] 25° C.” value in assay [1] is 14 min. Moreover, the IC50 in assay [2] amounted to 0.017 µg/mL.

B10: Antibody 23 (antibody, V domains shown)
VH: B5 VH with A23T
VL: B5 VL with A9G, A64D, S81R
On to B10, for which, in assay [3], the “IL-8 Secretion IC50” value is 0.242 µg/mL. Further, the “t/2 diss. [min] 25° C.” value in assay [1] worked out at 17 min. In assay [2], the IC50 was determined as 0.013 µg/mL.

B11: Antibody 19 (antibody, V domains shown)
VH: B5 VH with P41Q, R67Q
VL: B5 VL
For B11, the “IL-8 Secretion IC50” value in assay [3] was determined as 0.253 µg/mL. The “t/2 diss. [min] 25° C.” value in assay [1] came out at 17 min. Moreover, the IC50 in assay [2] is 0.015 µg/mL.

B12: Antibody 26 (antibody, V domains shown)
VH: B5 VH with P41Q, N61S, A63S, R67Q
VL: B5 VL with A9G, A64D, S81R
In the case of B12, the “IL-8 Secretion IC50” value in assay [3] turned out to be 0.222 µg/mL. Besides, the “t/2 diss. [min] 25° C.” value in assay [1] came out at 16 min. The IC50 in assay [2] was 0.094 µg/mL.

B13: Antibody 25 (antibody, V domains shown)
VH: B5 VH with P41Q, R67Q
VL: B5 VL with A9G, A64D, S81R
B13: the “IL-8 Secretion IC50” value in assay [3] turned out to be 0.475 µg/mL. Further, the “t/2 diss. [min] 25° C.” value in assay [1] stood at 17 min. The IC50 in assay [2] is 0.042 µg/mL.

B14: Antibody 18 (antibody, V domains shown)
VH: B5 VH with A23T, N61S, A63S
VL: B5 VL
As for B14, the “IL-8 Secretion IC50” value in assay [3] was 0.189 µg/mL. For the same molecule, the “t/2 diss. [min] 25° C.” value in assay [1] was found to be 16 min. In addition, the IC50 in assay [2] came to 0.016 µg/mL.

B15: Antibody 17 (antibody, V domains shown)
VH: B5 VH with A23T
VL: B5 VL
In the case of B15, the “IL-8 Secretion IC50” value in assay [3] stood at 0.146 µg/mL. Moreover, the “t/2 diss. [min] 25° C.” value in assay [1] was found to be 18 min. This molecule displayed an IC50 in assay [2] of 0.014 µg/mL.

B16: Antibody 24 (antibody, V domains shown)
VH: B5 VH with A23T, N61S, A63S
VL: B5 VL with A9G, A64D, S81R
For the molecule B16, the “IL-8 Secretion IC50” value in assay [3] was found to be 0.165 µg/mL. The “t/2 diss. [min] 25° C.” value in assay [1] stood at 15 min. This molecule gave an IC50 in assay [2] of 0.02 µg/mL.

The IC50 is the concentration that gives 50% inhibition. The low end stands for higher potency, the high end for lower potency.

The values above are taken from patent US20100255008A1 (Hoffmann-La Roche, published 2010).
